Target: T1, rat cytochrome P450 reductase (rat, UniProt P00388 1-678)
T1 sequence (looked up): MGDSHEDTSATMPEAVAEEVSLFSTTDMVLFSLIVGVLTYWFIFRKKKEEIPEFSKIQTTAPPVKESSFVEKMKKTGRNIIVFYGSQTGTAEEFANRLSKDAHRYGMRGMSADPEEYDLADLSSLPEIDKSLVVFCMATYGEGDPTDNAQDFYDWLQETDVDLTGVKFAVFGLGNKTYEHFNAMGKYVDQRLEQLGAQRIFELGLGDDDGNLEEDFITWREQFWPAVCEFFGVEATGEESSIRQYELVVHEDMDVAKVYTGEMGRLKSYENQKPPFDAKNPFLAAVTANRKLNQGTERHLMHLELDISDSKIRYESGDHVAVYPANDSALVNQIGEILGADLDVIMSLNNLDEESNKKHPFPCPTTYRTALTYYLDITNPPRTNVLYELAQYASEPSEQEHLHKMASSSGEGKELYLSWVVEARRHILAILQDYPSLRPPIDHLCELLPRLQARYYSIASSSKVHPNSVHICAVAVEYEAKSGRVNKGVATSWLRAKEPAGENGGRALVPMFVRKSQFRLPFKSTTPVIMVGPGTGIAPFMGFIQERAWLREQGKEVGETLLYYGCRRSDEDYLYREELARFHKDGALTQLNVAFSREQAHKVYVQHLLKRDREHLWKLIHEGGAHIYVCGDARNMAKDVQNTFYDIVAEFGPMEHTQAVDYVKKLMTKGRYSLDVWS
Assay: SEC

B1: rabbit cytochrome P450 2B4 (enzyme, UniProt P00178 1-491, looked up)
chain: MEFSLLLLLAFLAGLLLLLFRGHPKAHGRLPPGPSPLPVLGNLLQMDRKGLLRSFLRLREKYGDVFTVYLGSRPVVVLCGTDAIREALVDQAEAFSGRGKIAVVDPIFQGYGVIFANGERWRALRRFSLATMRDFGMGKRSVEERIQEEARCLVEELRKSKGALLDNTLLFHSITSNIICSIVFGKRFDYKDPVFLRLLDLFFQSFSLISSFSSQVFELFPGFLKHFPGTHRQIYRNLQEINTFIGQSVEKHRATLDPSNPRDFIDVYLLRMEKDKSDPSSEFHHQNLILTVLSLFFAGTETTSTTLRYGFLLMLKYPHVTERVQKEIEQVIGSHRPPALDDRAKMPYTDAVIHEIQRLGDLIPFGVPHTVTKDTQFRGYVIPKNTEVFPVLSSALHDPRYFETPNTFNPGHFLDANGALKRNEGFMPFSLGKRICLGEGIARTELFLFFTTILQNFSIASPVPPEDIDLTPRESGVGNVPPSYQIRFLAR
binding result: binds

— paper PMC10851674 (Analytical chemistry, 2022)
